# Measurements from the nanobody polyreactivity screen of Harvey et al. (2022).
# Test: yeast display, Sf9 membrane polyspecificity reagent, FACS + sequencing; frameworks hold sequencing errors
# Outline: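 Galactose induction of a Saccharomyces cerevisiae BJ5465 synthetic nanobody display library ran 36–48 hours. The cells were then stained for 1 hour at 4 °C with 10% biotinylated, detergent-solubilized Sf9 membrane reagent, pulled down on streptavidin microbeads and FACS-sorted into low and high (top ~1%) gates on expression and reagent-binding fluorescence. Labels for polyreactivity follow the gate of origin.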
row,Sequence,polyreactivity (PSR sort gate)
1,QVQLVESGGGLVQAGGSLRLSCAASGFIFHYNAMGWYRQAPGKERELVAAISARGGGTYYADSVKGRFTISRDNAKNTVYLQMNSLKPEDTAVYYCAAGNYPLGDGYWGQGTQVTVSS,high polyreactivity
2,QVQLVESGGGLVQAGGSLRLSCAASGFIFHYYAMGWYRQAPGKERELVAAISSGGGRTYYADSVKGRFTISRDNAKNTVYLLMNSLKPEDTAVYYCAARYAVNAWGGRRDYWGQGTEVTVSS,high polyreactivity
3,QVQLVESGGGLVQAGGSLRLSCAASGFIFIINAMGWYRQAPGKERELVAGIRWSGGSTYYADSVKGRFTISRDNAKNTVYLQMNSLKPEDTAVYYCNKDRGSLTLYTYDYWGQGTQVTVSS,low polyreactivity
4,QVQLVESGGGLVQAGGSLRLSCAASGFIFIIYAMGWYRQAPGKERELVAGIRWSGGSTYYADSVKGRFTISRDNAKNTVYLQMNSLKPEDTAVYYCIKDRGSLTLYTYDYWGQGTQVTVSS,low polyreactivity
5,QVQLVESGGGLVQAGGSLRLSCAASGFIFIKYAMGWYRQAPGKERELVAGITRSGSSTYYADSVKGRFTISRDNAKNTVYLQMNSLKPEDTAVYYCAAASGSSVGRYGYWGQGTQVTVSS,high polyreactivity
6,QVQLVESGGGLVQAGGSLRLSCAASGFIFILNAMGWYRQAPGKERELVAGISISGGSTYYADSVKGRFTISRDNAKNTVYLQMNSLKPEDTAVYYCAAPDGDTRVSDQAYDYWGQGTQVTVSS,low polyreactivity
7,QVQLVESGGGLVQAGGSLRLSCAASGFIFIRNAMGWYRQAPGKEWELVAAISSGGRTYYADSVKGRFTISRDNAKNTVYLQMNSLKPEDTAVYYCAARVITHYGRYYYWGQGTQVTVSS,high polyreactivity
8,QVQLVESGGGLVQAGGSLRLSCAASGFIFITVNAMGWYRQAPGKEREFVAAITRSGTGTYYADSVKGRFTISRDYAKYTVFLQMNSLKPEDTAVSYCAADATSTGAYDYWGQGTQVTVSS,low polyreactivity
9,QVQLVESGGGLVQAGGSLRLSCAASGFIFITYDMGWYIQAPGKERELVAVITSGGTTNYADSVKGRFTIARDNAKNTVYLQMNSLKPEDTAVYYCNRDSVLDPGNPNPYGFDYWGQGTQVTVSS,low polyreactivity
10,QVQLVESGGGLVQAGGSLRLSCAASGFIFIYYAMGWYRQAPGKERELVATINGITGSTYYADSVKGRFTISRDNAKNTVYLQMNSLKPEDTAVYYCAKVPRKYRAWMDYWGQGTQVTVSS,high polyreactivity
11,QVQLVESGGGLVQAGGSLRLSCAASGFIFKANAMGWYRQAPGKERELVAVITRRGGSTYYADSVKGRFTISRDNAKNTVYLQMNSLKPEDTAVYYCAAKSYTYGYNYWGQGTQVTVSS,high polyreactivity
12,QVQLVESGGGLVQAGGSLRLSCAASGFIFKAYAMGWYRQAPGKERELVASITSGDSTNYADSVKGRFTISRDNAKNTVYLQMNSLKPEDTAVYYCNADGWRWHRRKWVYGYDYWGQGTQVTVSS,low polyreactivity
13,QVQLVESGGGLVQAGGSLRLSCAASGFIFKFYTMGWYRQAPGKERELVAVISGSGGRTYYADSVKGRFTISRDNAKNTVYLQMNSLKPEDTAVYYCARYGPYQSSYHYDYWGQGTQVTVSS,high polyreactivity
14,QVQLVESGGGLVQAGGSLRLSCAASGFIFKGYAMGWYRQAPGKERELVAAISKGGGNTYYADSVMGRFSISRDNAKNTVYLQMNSLKPEDTAVYYCAAVPTRYRSYTYTYGGYNYWGQGTQVTVSS,high polyreactivity
15,QVQLVESGGGLVQAGGSLRLSCAASGFIFKGYDMGWYRQAPGKEREMVAAITSGSTNYADSVKGRFTNSRDNAKNTVYLQMNSVKPEDTAVYYCNAELGRATLYPRVFIERGGYWGQGTQVNVSS,low polyreactivity
16,QVQLVESGGGLVQAGGSLRLSCAASGFIFKKYVMGWYRQAPGKERELVAGISRSGGSTYYADSVKGRFTISRDNAKNTVYLQMNSLKPEDTAVYYCAAYIYQSPTRGGGYWGQGTQVTVSS,high polyreactivity
17,QVQLVESGGGLVQAGGSLRLSCAASGFIFKPNAMGWYRQAPGKERELVAAITWGGDNTYYADSVKGRFTISRDNAKNTVYLQMNSLKPDDTAVYYCAAEWKFHSDASYIYDYWGQGTQVTVSS,high polyreactivity
18,QVQLVESGGGLVQAGGSLRLSCAASGFIFKPYAMGWYRQAPWKERELVAAITVNGGTTYYADSVKGRFTISRDNAKNTVYLQMNSLKPEDTAVYYCNRGRPGGPSWYHYDYWGQGTQVTVSS,high polyreactivity
19,QVQLVESGGGLVQAGGSLRLSCAASGFIFKRSAMGWYRQAPGKERELVAAITLSGGDTYYADSVKGRFTISRDNAKNNVYLQMNSLKPEDTAVYYCNAPYIGENYYWGQGTQVTVSS,high polyreactivity
20,QVQLVESGGGLVQAGGSLRLSCAASGFIFKRYAMGWYRQAPGKERELVAAITSGGSTHYADSVKGRFTISRDNAKNTVYFQMNSLKPEDTAVYYCASRRYKWGVRYDYWGQGTQVTVSS,high polyreactivity
21,QVQLVESGGGLVQAGGSLRLSCAASGFIFKSNAMGWYRQAPGKERELVAAITKRGGSTYYADSVKGRFTISRDNAKNTVYLQMNSLKPEDTAVYYCAVRKPYSRYGGFDYWGQGTQVTVSS,high polyreactivity
22,QVQLVESGGGLVQAGGSLRLSCAASGFIFKSYAMGWYRQAPGKERELVAAITSGGSTYYADSVKGRFTISRDNAKNTVYLQMNSLKPEDTAVYYCATRYRFGWGLSWYDYWGQGTQVTVSS,high polyreactivity

row,Sequence,polyreactivity (PSR sort gate)
1,QVQLVESGGGLVQAGGSLRLSCAASGFIFLGNAMGWYRQAPGKERELVAAISSGGSTYADSVKGRFTISRDNAKNTVYLQMNSLKPEDTAVNYCAVDRAFRAQNYHEYDYWGQGTQVTVSS,low polyreactivity
2,QVQLVESGGGLVQAGGSLRLSCAASGFIFLINAMGWYRQAPGKERELVAGITSGGGNTYYADSVKGRFTISRDNAKNTVYLQMYSLKPEDTAVFYCAARLFDYWGQGTQVTVSS,low polyreactivity
3,QVQLVESGGGLVQAGGSLRLSCAASGFIFLQNAMGWYRQAPGKERELVAVIRLSSCSTYYADSVKGRFTISRDNAKNTVYFEMNSLKPEDTAVYYCAARGYYSGQTTIGMDYWGQGTQVTVSS,low polyreactivity
4,QVQLVESGGGLVQAGGSLRLSCAASGFIFLSNGMGWYRPAPGKERELVAAITSGGNTNYADSVTGRFTISRDNAKTTVYLQMNSLKPEDTAVYYCAAYWIFITYFGYYSEYAYWGQGTQVTVSS,low polyreactivity
5,QVQLVESGGGLVQAGGSLRLSCAASGFIFLVNAMGWYRHAPGKERELVAAITTSGASTYYADSVKGRFTISRDNAKNTVYLQMNSLKPEDTAVYYCAAGSYARPEYGYWGQGTQVTVSS,low polyreactivity
6,QVQLVESGGGLVQAGGSLRLSCAASGFIFLWYAMGWYRQAPGKERELVAAISSGGGRTHYADSVKGRFTISRDNAKNTVYLQMNSLKPEDTAVYYCAAALRGQASRFDYWGQGTKVTVSS,high polyreactivity
7,QVQLVESGGGLVQAGGSLRLSCAASGFIFLYYAMGWYRQAPGKERELVAAISRSGGRTYYADSVKGRFTISRDNAKNTVYLQMNSLKPEDTAVYYCAADRLGSISGYDYWGQGTQVTVSS,high polyreactivity
8,QVQLVESGGGLVQAGGSLRLSCAASGFIFNGNAMGWYIQAPGKERELVVAISKSGGRTYYADSVKGRFTISRDNAKYTVYLQMNSLKPEDTAVYDCARRTYTRMYWGQGTQVTVSS,high polyreactivity
9,QVQLVESGGGLVQAGGSLRLSCAASGFIFNHYAMGWYRQAPGKEREFVAAISWSGGSTYYADSVKGRFTISRDNAKNTVYLQMNSLKPEDTAVYYCAASYNCLWHGDYDYWGQGTQVTVSS,low polyreactivity
10,QVQLVESGGGLVQAGGSLRLSCAASGFIFNIYAMGWYRQAPGKERELVAAITFSGGSTYYADSVKGRFTISRDNAKNTVYLQKNSLKPEDTAVYYCAADYLSEYTTYDYWGQGTQVTVSS,low polyreactivity
11,QVQLVESGGGLVQAGGSLRLSCAASGFIFNKYAMGWYRQAPGKERELVATIRRDGSTNYADSVKGRFTISRDNAKNTVYLQMNSLIPEDTAVYYCAVRPYYWSRDYYWGQGTQVTVSS,high polyreactivity
12,QVQLVESGGGLVQAGGSLRLSCAASGFIFNRYAMGWYRQAPGKERELVATITRRGGRTYFADSVKGRFTISRDNAKNTVYLQMNSLKPEDTAVYYCNADPNVPVETFDYWGQGTQVTVSS,high polyreactivity
13,QVQLVESGGGLVQAGGSLRLSCAASGFIFNRYVMGWYRQAPGKERELVAVISRGGSTSYADSVKGRFTISRDNAKNTVYLQMNSLKPEDTAVYYCNAVHSRVYYSLGYGYWGLGTQVTVSS,high polyreactivity
14,QVQLVESGGGLVQAGGSLRLSCAASGFIFPAYTMGWYRQAPGKERELVAAITWSGGSTYYADSVKGRFTISRDNAKNTVYLQMKSLKPEDTAVYYCAAYVSRKYRKGPRFAYDYWGQGTQVTVSS,high polyreactivity
15,QVQLVESGGGLVQAGGSLRLSCAASGFIFPDDAMGWYSQAPGKERELVASINRSGGSTNYADSVKGRFTISRDHAKNTDYLQMNSLKPEDTAVYYCAPDFSFLGNASARLDYDYWGQGTQVTGSS,low polyreactivity
16,QVQLVESGGGLVQAGGSLRLSCAASGFIFPEYAMGWYRQAPGKERELVAAINWSGGNTYYADSVKGRFTISRDNAKNTVYLQMNSLKPEDTAVYYCNVDEWVTDDDYWGQGTEVTVSS,low polyreactivity
17,QVQLVESGGGLVQAGGSLRLSCAASGFIFPEYAMGWYRQAPGKERELVAAINWSGGNTYYADSVKGSFTISRDNAKNTVYLQMNSLKPEDTAVYYCNVDDWVTDDDYWGQGTQVTVSS,low polyreactivity
18,QVQLVESGGGLVQAGGSLRLSCAASGFIFPFYAMGWYRQAPGKEREFVAAITLSSGSTYYADSVKGRFTISRDNAKNTVFLQMNSLKPEDTAVYYCNADYNVYLYYGYDYWGQGTHVTVSS,low polyreactivity
19,QVQLVESGGGLVQAGGSLRLSCAASGFIFPFYAMGWYRQAPGKERELVAVIRTSSDRTYYADSVKGRFTISRDNAKNTVYLQMNSLKPEDTAVYYCAAETYRLFDYWGQGTQVTVSS,low polyreactivity
20,QVQLVESGGGLVQAGGSLRLSCAASGFIFPGYAMGWYRQAPGKERELVAAISRSGGITYYADSVKGRFTISRDNAKNTVYLQMNSLKPEDTAVYYCAARDRVRDDYWGQGTQVTVSS,high polyreactivity
21,QVQLVESGGGLVQAGGSLRLSCAASGFIFPLYTMGWYRQAPGKERELVAAISVTGGSTYYADSVKGRFTISRDNAKNTVYLQMNSLKPEDTAVYYCNAYLFFLNRVWSFDYWGQGTQVTVSS,high polyreactivity
